Results from US20190002564A1 (Hoffmann-La Roche, published 2019).

T1: human MCSP(D3 domain)-avi-his (human, UniProt Q6UVK1 1582-2224)
T1 construct: Recombinant D3 domain of MCSP (CSPG4) with avi and his tags; also called hu-MCSP(D3 domain)-avi-his; human MCSP antigen
T1 sequence: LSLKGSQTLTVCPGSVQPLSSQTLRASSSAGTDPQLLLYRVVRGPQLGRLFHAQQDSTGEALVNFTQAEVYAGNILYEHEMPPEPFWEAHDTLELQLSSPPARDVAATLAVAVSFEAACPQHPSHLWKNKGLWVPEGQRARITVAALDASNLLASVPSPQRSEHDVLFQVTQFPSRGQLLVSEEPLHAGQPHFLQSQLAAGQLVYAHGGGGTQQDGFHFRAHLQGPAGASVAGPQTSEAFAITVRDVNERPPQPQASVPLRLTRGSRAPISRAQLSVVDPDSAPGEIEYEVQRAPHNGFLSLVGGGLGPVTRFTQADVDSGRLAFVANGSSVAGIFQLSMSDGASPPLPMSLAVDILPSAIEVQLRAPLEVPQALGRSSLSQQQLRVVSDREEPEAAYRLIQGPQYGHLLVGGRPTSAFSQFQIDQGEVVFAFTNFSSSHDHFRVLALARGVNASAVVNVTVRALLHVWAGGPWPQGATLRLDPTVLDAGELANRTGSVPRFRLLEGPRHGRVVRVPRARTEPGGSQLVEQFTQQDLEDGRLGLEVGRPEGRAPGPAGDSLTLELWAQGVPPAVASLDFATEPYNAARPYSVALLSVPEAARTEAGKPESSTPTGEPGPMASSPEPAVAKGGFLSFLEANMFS

T2: cynomolgus MCSP D3 (cynomolgus, UniProt Q6UVK1 1582-2224 (human entry), limits assumed)
T2 construct: Recombinant, captured through anti-Penta His in the avidity set-up; also called Cyno MCSP; cynomolgus homologue
T2 chain: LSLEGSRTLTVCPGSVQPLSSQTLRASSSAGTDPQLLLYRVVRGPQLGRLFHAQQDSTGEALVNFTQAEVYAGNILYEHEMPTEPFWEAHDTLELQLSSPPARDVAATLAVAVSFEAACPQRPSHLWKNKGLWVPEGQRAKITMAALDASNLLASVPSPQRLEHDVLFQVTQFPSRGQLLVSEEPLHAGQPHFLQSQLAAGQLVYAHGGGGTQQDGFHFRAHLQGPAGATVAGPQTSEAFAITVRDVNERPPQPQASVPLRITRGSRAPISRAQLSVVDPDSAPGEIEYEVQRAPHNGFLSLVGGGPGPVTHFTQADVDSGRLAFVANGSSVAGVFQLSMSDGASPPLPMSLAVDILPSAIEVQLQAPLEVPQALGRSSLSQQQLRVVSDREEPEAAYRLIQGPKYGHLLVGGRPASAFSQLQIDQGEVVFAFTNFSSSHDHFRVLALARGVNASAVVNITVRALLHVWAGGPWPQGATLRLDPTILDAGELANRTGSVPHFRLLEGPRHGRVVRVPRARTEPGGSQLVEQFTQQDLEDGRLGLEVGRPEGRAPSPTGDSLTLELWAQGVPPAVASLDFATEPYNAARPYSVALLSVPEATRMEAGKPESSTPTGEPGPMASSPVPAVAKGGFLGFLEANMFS


What was measured:
[1] = target: T1, human MCSP(D3 domain)-avi-his; assay: SPR ProteOn XPR36; parental M4-3/ML2 IgG KD against variant IgG KD
cynomolgus MCSP D3 = target: T2, cynomolgus MCSP D3; assay: as above

Row | Fold increase over parent (IgG KD) [1] | Fold increase over parent (IgG KD) (cynomolgus MCSP D3) | Binder
1 | 6.7 fold | 2.9 fold | M4-3(A7)/ML2(E10) IgG (antibody, V domains shown, Human IgG1 format, purified from mammalian production) VH: QVQLQESGPGLVKPSQTLSLTCTVSGGSITDGYYWNWIRQHPGKGLEWIGYITFDGRNNYNPSLKSRVTISRDTSKNQFSLKLSSVTAADTAVYYCADFDYWGQGTLVTVSS VL: DIQMTQSPSSLSASVGDRVTITCRASYGIRGYLNWYQQKPGKAPKLLIYYTSSLHSGVPSRFSGSGSGTDFTLTISSLQPEDFATYHCQQYSKLPWTFGQGTKVEIK
2 | 4 fold | 3.3 fold | M4-3(C1)/ML2(E10) IgG (antibody, V domains shown, Human IgG1 format, produced in HEK293-EBNA) VH: QVQLQESGPGLVKPSQTLSLTCTVSGGSITSGYYWNWIRQHPGKGLEWIGYITFDGSNNYNPSLKSRVTISRDTSKNQFSLKLSSVTAADTAVYYCADFDYWGQGTLVTVSS VL: DIQMTQSPSSLSASVGDRVTITCRASYGIRGYLNWYQQKPGKAPKLLIYYTSSLHSGVPSRFSGSGSGTDFTLTISSLQPEDFATYHCQQYSKLPWTFGQGTKVEIK
3 | 2.2 fold | 2.5 fold | M4-3(C1)/ML2 IgG (antibody, V domains shown, Human IgG1 format, purified from mammalian production) VH: QVQLQESGPGLVKPSQTLSLTCTVSGGSITSGYYWNWIRQHPGKGLEWIGYITFDGSNNYNPSLKSRVTISRDTSKNQFSLKLSSVTAADTAVYYCADFDYWGQGTLVTVSS VL: DIQMTQSPSSLSASVGDRVTITCRASQGIRNYLNWYQQKPGKAPKLLIYYTSSLHSGVPSRFSGSGSGTDFTLTISSLQPEDFATYYCQQYSKLPWTFGQGTKVEIK
4 | 2.5 fold | 2 fold | M4-3(A7)/ML2 IgG (antibody, V domains shown, Human IgG1 format, purified from mammalian production) VH: QVQLQESGPGLVKPSQTLSLTCTVSGGSITDGYYWNWIRQHPGKGLEWIGYITFDGRNNYNPSLKSRVTISRDTSKNQFSLKLSSVTAADTAVYYCADFDYWGQGTLVTVSS VL: DIQMTQSPSSLSASVGDRVTITCRASQGIRNYLNWYQQKPGKAPKLLIYYTSSLHSGVPSRFSGSGSGTDFTLTISSLQPEDFATYYCQQYSKLPWTFGQGTKVEIK
5 | 28.6 fold | 10 fold | M4-3(A7)/ML2(C5) IgG (antibody, V domains shown, Human IgG1 format, purified from mammalian production) VH: QVQLQESGPGLVKPSQTLSLTCTVSGGSITDGYYWNWIRQHPGKGLEWIGYITFDGRNNYNPSLKSRVTISRDTSKNQFSLKLSSVTAADTAVYYCADFDYWGQGTLVTVSS VL: DIQMTQSPSSLSASVGDRVTITCRASRGIREYLNWYQQKPGKAPKLLIYYTGSLHSGVPSRFSGSGSGTDFTLTISSLQPEDFATYYCQQYSELPWTFGQGTKVEIK
6 | 2.9 fold | 2 fold | M4-3/ML2(C5/G3) IgG (antibody, V domains shown, Human IgG1 format, purified from mammalian production) VH: QVQLQESGPGLVKPSQTLSLTCTVSGGSITSGYYWNWIRQHPGKGLEWIGYITYDGSNNYNPSLKSRVTISRDTSKNQFSLKLSSVTAADTAVYYCADFDYWGQGTLVTVSS VL: DIQMTQSPSSLSASVGDRVTITCRASRGIREYLNWYQQKPGKAPKLLIYYTGSLHSGVPSRFSGSGSGTDFTLTISSLQPEDFATYYCQQYSALPWTFGQGTKVEIK
7 | 5 fold | 2 fold | M4-3/ML2(C5) IgG (antibody, V domains shown, Human IgG1 format, purified from mammalian production) VH: QVQLQESGPGLVKPSQTLSLTCTVSGGSITSGYYWNWIRQHPGKGLEWIGYITYDGSNNYNPSLKSRVTISRDTSKNQFSLKLSSVTAADTAVYYCADFDYWGQGTLVTVSS VL: DIQMTQSPSSLSASVGDRVTITCRASRGIREYLNWYQQKPGKAPKLLIYYTGSLHSGVPSRFSGSGSGTDFTLTISSLQPEDFATYYCQQYSELPWTFGQGTKVEIK
8 | 5 fold | 2.2 fold | M4-3/ML2(E10/G3) IgG (antibody, V domains shown, Human IgG1 format, purified from mammalian production) VH: QVQLQESGPGLVKPSQTLSLTCTVSGGSITSGYYWNWIRQHPGKGLEWIGYITYDGSNNYNPSLKSRVTISRDTSKNQFSLKLSSVTAADTAVYYCADFDYWGQGTLVTVSS VL: DIQMTQSPSSLSASVGDRVTITCRASYGIRGYLNWYQQKPGKAPKLLIYYTSSLHSGVPSRFSGSGSGTDFTLTISSLQPEDFATYHCQQYSALPWTFGQGTKVEIK
9 | 28.6 fold | 10 fold | M4-3(A7)/ML2(G3) IgG (antibody, V domains shown, Human IgG1 format, purified from mammalian production) VH: QVQLQESGPGLVKPSQTLSLTCTVSGGSITDGYYWNWIRQHPGKGLEWIGYITFDGRNNYNPSLKSRVTISRDTSKNQFSLKLSSVTAADTAVYYCADFDYWGQGTLVTVSS VL: DIQMTQSPSSLSASVGDRVTITCRASQGIRNYLNWYQQKPGKAPKLLIYYTSSLHSGVPSRFSGSGSGTDYTLTISSLQPEDFATYYCQQYSALPWTFGQGTKVEIK
10 | 6.7 fold | 3.3 fold | M4-3/ML2(G3) IgG (antibody, V domains shown, Human IgG1 format, purified from mammalian production) VH: QVQLQESGPGLVKPSQTLSLTCTVSGGSITSGYYWNWIRQHPGKGLEWIGYITYDGSNNYNPSLKSRVTISRDTSKNQFSLKLSSVTAADTAVYYCADFDYWGQGTLVTVSS VL: DIQMTQSPSSLSASVGDRVTITCRASQGIRNYLNWYQQKPGKAPKLLIYYTSSLHSGVPSRFSGSGSGTDYTLTISSLQPEDFATYYCQQYSALPWTFGQGTKVEIK
11 | 4 fold | 2.9 fold | M4-3(B7)/ML2 IgG (antibody, V domains shown, Human IgG1 format, purified from mammalian production) VH: QVQLQESGPGLVKPSQTLSLTCTVSGGSITSGYYWNWIRQHPGKGLEWIGYITFDGINNYNPSLKSRVTISRDTSKNQFSLKLSSVTAADTAVYYCADFDYWGQGTLVTVSS VL: DIQMTQSPSSLSASVGDRVTITCRASQGIRNYLNWYQQKPGKAPKLLIYYTSSLHSGVPSRFSGSGSGTDFTLTISSLQPEDFATYYCQQYSKLPWTFGQGTKVEIK
12 | 2.2 fold | 2 fold | M4-3(B8)/ML2 IgG (antibody, V domains shown, Human IgG1 format, purified from mammalian production) VH: QVQLQESGPGLVKPSQTLSLTCTVSGGSITSGYYWNWIRQHPGKGLEWIGYITFDGRNNYNPSLKSRVTISRDTSKNQFSLKLSSVTAADTAVYYCADFDYWGQGTLVTVSS VL: DIQMTQSPSSLSASVGDRVTITCRASQGIRNYLNWYQQKPGKAPKLLIYYTSSLHSGVPSRFSGSGSGTDFTLTISSLQPEDFATYYCQQYSKLPWTFGQGTKVEIK
13 | 2 fold | 1 fold | M4-3/ML2(E10) IgG (antibody, V domains shown, Human IgG1 format, purified from mammalian production) VH: QVQLQESGPGLVKPSQTLSLTCTVSGGSITSGYYWNWIRQHPGKGLEWIGYITYDGSNNYNPSLKSRVTISRDTSKNQFSLKLSSVTAADTAVYYCADFDYWGQGTLVTVSS VL: DIQMTQSPSSLSASVGDRVTITCRASYGIRGYLNWYQQKPGKAPKLLIYYTSSLHSGVPSRFSGSGSGTDFTLTISSLQPEDFATYHCQQYSKLPWTFGQGTKVEIK
14 | 5 fold | 2 fold | M4-3(D6)/ML2 IgG (antibody, V domains shown, Human IgG1 format, purified from mammalian production) VH: QVQLQESGPGLVKPSQTLSLTCTVSGGSITSGYYWNWIRQHPGKGLEWIGYITFDGKNNYNPSLKSRVTISRDTSKNQFSLKLSSVTAADTAVYYCADFDYWGQGTLVTVSS VL: DIQMTQSPSSLSASVGDRVTITCRASQGIRNYLNWYQQKPGKAPKLLIYYTSSLHSGVPSRFSGSGSGTDFTLTISSLQPEDFATYYCQQYSKLPWTFGQGTKVEIK
15 | 10 fold | 6.7 fold | M4-3(C1)/ML2(C5) IgG (antibody, V domains shown, Human IgG1 format, produced in HEK293-EBNA) VH: QVQLQESGPGLVKPSQTLSLTCTVSGGSITSGYYWNWIRQHPGKGLEWIGYITFDGSNNYNPSLKSRVTISRDTSKNQFSLKLSSVTAADTAVYYCADFDYWGQGTLVTVSS VL: DIQMTQSPSSLSASVGDRVTITCRASRGIREYLNWYQQKPGKAPKLLIYYTGSLHSGVPSRFSGSGSGTDFTLTISSLQPEDFATYYCQQYSELPWTFGQGTKVEIK
